This note sets out measurements from article PMC6224610, “Structural basis for the recognition of sulfur in phosphorothioated DNA” (Nature Communications, 2018).

Data set [1] has as its system ScoMcrA-SBD A168I (Streptomyces coelicolor). Description: EMSA. Particulars: Rp phosphorothioate G(PS)GCC, both strands, EMSA: 20 mM Tris-HCl pH 8.5, 200 mM NaCl, 1 mM DTT, 5% glycerol, 4 C, 30 min, FP: 20 mM Tris pH 8.0, 50 mM NaCl, room temperature, 5 nM …. (A gel shift assay detects complexes by their altered migration in electrophoresis.)
Data set [2] concerns ScoMcrA-SBD H116I (Streptomyces coelicolor). The experiment in a line: EMSA. Particulars: Rp phosphorothioate G(PS)GCC, both strands, EMSA: 20 mM Tris-HCl pH 8.5, 200 mM NaCl, 1 mM DTT, 5% glycerol, 4 C, 30 min, FP: 20 mM Tris pH 8.0, 50 mM NaCl, room temperature, 5 nM ….
The subject of data set [3] is ScoMcrA-SBD R190A (Streptomyces coelicolor). The experiment in a line: EMSA. Particulars: Rp phosphorothioate G(PS)GCC, both strands, EMSA: 20 mM Tris-HCl pH 8.5, 200 mM NaCl, 1 mM DTT, 5% glycerol, 4 C, 30 min, FP: 20 mM Tris pH 8.0, 50 mM NaCl, room temperature, 5 nM ….
For data set [4], the system named is ScoMcrA-SBD R191A (Streptomyces coelicolor). The experiment in a line: EMSA. Particulars: Rp phosphorothioate G(PS)GCC, both strands, EMSA: 20 mM Tris-HCl pH 8.5, 200 mM NaCl, 1 mM DTT, 5% glycerol, 4 C, 30 min, FP: 20 mM Tris pH 8.0, 50 mM NaCl, room temperature, 5 nM ….
In data set [5] the test system is ScoMcrA-SBD S187A (Streptomyces coelicolor). Description: EMSA. The conditions noted are these: Rp phosphorothioate G(PS)GCC, both strands, EMSA: 20 mM Tris-HCl pH 8.5, 200 mM NaCl, 1 mM DTT, 5% glycerol, 4 C, 30 min, FP: 20 mM Tris pH 8.0, 50 mM NaCl, room temperature, 5 nM ….
The subject of data set [6] is ScoMcrA-SBD Y164F (Streptomyces coelicolor). The experiment in a line: EMSA. The conditions noted are these: Rp phosphorothioate G(PS)GCC, both strands, EMSA: 20 mM Tris-HCl pH 8.5, 200 mM NaCl, 1 mM DTT, 5% glycerol, 4 C, 30 min, FP: 20 mM Tris pH 8.0, 50 mM NaCl, room temperature, 5 nM ….
Data set [7] concerns ScoMcrA-SBD Y164I (Streptomyces coelicolor). Description: EMSA. The conditions noted are these: Rp phosphorothioate G(PS)GCC, both strands, EMSA: 20 mM Tris-HCl pH 8.5, 200 mM NaCl, 1 mM DTT, 5% glycerol, 4 C, 30 min, FP: 20 mM Tris pH 8.0, 50 mM NaCl, room temperature, 5 nM ….
Data set [8] concerns the target T1, ScoMcrA-SBD (Streptomyces coelicolor, UniProt Q9L0M9 91-260).
T1 sequence: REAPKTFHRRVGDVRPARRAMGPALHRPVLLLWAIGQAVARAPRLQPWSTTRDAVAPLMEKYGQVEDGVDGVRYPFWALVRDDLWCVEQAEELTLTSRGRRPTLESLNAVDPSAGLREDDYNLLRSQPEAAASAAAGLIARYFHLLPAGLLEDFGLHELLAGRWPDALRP
Description: fluorescence polarization. The conditions noted are these: phosphorothioate G(PS)GCC, EMSA: 20 mM Tris-HCl pH 8.5, 200 mM NaCl, 1 mM DTT, 5% glycerol, 4 C, 30 min, FP: 20 mM Tris pH 8.0, 50 mM NaCl, room temperature, 5 nM …. On the technique in general: Fluorescence polarisation rises when a labelled molecule tumbles more slowly, as on binding a larger partner.

Data set [9] has as its system ScoMcrA-SBD R117K (Streptomyces coelicolor). Description: fluorescence polarization. Particulars: phosphorothioate G(PS)GCC, EMSA: 20 mM Tris-HCl pH 8.5, 200 mM NaCl, 1 mM DTT, 5% glycerol, 4 C, 30 min, FP: 20 mM Tris pH 8.0, 50 mM NaCl, room temperature, 5 nM ….
Another data set deals with T2, ScoMcrA FL (Streptomyces coelicolor, UniProt Q9L0M9 1-560).
T2 sequence: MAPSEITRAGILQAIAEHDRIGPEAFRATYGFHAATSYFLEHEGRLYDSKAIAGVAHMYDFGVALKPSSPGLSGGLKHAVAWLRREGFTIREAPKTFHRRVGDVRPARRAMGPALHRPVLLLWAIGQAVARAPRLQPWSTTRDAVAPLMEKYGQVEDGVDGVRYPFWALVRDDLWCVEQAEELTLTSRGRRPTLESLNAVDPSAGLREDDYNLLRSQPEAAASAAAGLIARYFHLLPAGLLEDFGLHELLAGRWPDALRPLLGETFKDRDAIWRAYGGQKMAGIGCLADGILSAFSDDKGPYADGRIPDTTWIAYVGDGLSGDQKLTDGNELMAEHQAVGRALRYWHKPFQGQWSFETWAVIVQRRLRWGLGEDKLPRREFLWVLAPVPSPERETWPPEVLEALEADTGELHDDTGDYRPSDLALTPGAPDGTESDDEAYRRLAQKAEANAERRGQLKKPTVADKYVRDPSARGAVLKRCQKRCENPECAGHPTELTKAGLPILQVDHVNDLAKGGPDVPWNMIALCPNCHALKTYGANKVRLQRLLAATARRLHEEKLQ
Description: EMSA; EMSA: 20 mM Tris-HCl pH 8.5, 200 mM NaCl, 1 mM DTT, 5% glycerol, 4 C, 30 min; FP: 20 mM Tris pH 8.0, 50 mM NaCl, 1 mM DTT, 5% glycerol, room temperature, 5 nM FAM-DNA. The conditions noted are these: protein: recombinant; tags: MBP tag removed by TEV; chain copies: 2; blunt.

The target in data set [10] is T1, ScoMcrA-SBD. The description is as above. Particulars: protein: recombinant; tags: MBP tag removed by TEV; blunt.
Data set [11] concerns the molecule itself. The experiment in a line: crystal structure; full-length ScoMcrA alone, 3.15 Å, space group P212121, six molecules in each asymmetric unit.
The target in data set [12] is T1, ScoMcrA-SBD. The experiment in a line: crystal structure (1.70 A); EMSA: 20 mM Tris-HCl pH 8.5, 200 mM NaCl, 1 mM DTT, 5% glycerol, 4 C, 30 min; FP: 20 mM Tris pH 8.0, 50 mM NaCl, 1 mM DTT, 5% glycerol, room temperature, 5 nM FAM-DNA. The conditions noted are these: protein: recombinant; tags: MBP tag removed by TEV; blunt.
Data set [13] deals with the molecule itself. Description: crystal structure; ScoMcrA-SBD-SRA (91-442) with 10 bp Rp PT-DNA, 3.30 Å, space group I4122; the two protomers are related by the crystallographic two-fold rotation axis.
A further data set deals with T3, ScoMcrA-SBD-SRA (Streptomyces coelicolor, UniProt Q9L0M9 91-442).
T3 sequence: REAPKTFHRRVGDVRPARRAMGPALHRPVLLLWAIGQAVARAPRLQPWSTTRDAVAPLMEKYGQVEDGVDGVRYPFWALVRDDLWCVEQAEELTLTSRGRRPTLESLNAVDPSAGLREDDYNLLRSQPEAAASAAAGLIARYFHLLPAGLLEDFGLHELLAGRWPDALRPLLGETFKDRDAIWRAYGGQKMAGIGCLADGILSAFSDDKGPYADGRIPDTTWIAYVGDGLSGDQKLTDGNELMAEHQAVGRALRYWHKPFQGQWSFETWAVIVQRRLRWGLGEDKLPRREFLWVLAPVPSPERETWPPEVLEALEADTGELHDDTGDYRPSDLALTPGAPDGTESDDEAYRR
The experiment in a line: crystal structure (3.30 A); EMSA: 20 mM Tris-HCl pH 8.5, 200 mM NaCl, 1 mM DTT, 5% glycerol, 4 C, 30 min; FP: 20 mM Tris pH 8.0, 50 mM NaCl, 1 mM DTT, 5% glycerol, room temperature, 5 nM FAM-DNA. The conditions noted are these: protein: recombinant; tags: MBP tag removed by TEV; chain copies: 2; blunt.

Turning to Rp PT-DNA, GGCC core (EMSA), the binding signal (% reduction vs WT) in [1] is 51; in data set [2] it was 94; in [3] it was 82; in data set [4] it was 72; in data set [5] it was 38; in [6], 65. This molecule returned a binding signal (% reduction vs WT) in data set [7] of 89.
Usually Kd stands for the free concentration of one partner at which half of the binding sites on the other are occupied at equilibrium, for simple one-to-one binding. Higher therefore signals weaker binding. With 5-FAM PT-DNA, GGCC core (FP), the Kd with ScoMcrA-SBD [8] amounted to 1.32 µM; in data set [9], 1.55 µM.
Molecule 5-FAM hemi-PT-DNA (FP) yielded a Kd with ScoMcrA-SBD [8] (one strand) of 1.47 µM.

B1: hemi-PT-DNA (S10hemi-S/U10hemi-A) (dsDNA)
DNA 1: CCCGGCCGCC
DNA 2: GGCGGCCGGG
modifications: Rp phosphorothioate between G4 and G5 of strand 1 only
For B1, the binding result with ScoMcrA FL and with ScoMcrA-SBD [10] was “binds” each time.

B2: full-length Streptomyces coelicolor ScoMcrA (ScoA3McrA), DNA phosphorothioation-dependent Type-IV restriction endonuclease (enzyme, UniProt Q9L0M9 1-560, looked up)
chain: T2 sequence
notes: ScoMcrA (ScoA3McrA), Streptomyces coelicolor, full length; head, SBD, SRA and HNH domains; the model reaches residue 560; The structure was phased by SAD with a selenomethionine derivative of the full-length protein; Cloned into pSJ8; also called FL ScoMcrA; source: E. coli BL21(DE3), purified (HisTrap, TEV cleavage, heparin, Source 15Q, Superdex 200)
Broadly, the stoichiometry N is the number of molecules, sites or subunits per partner or assembly. Consider B2, for which the “stoichiometry N” value in data set [11] is 2.

B3: GGCC8 Rp (dsDNA)
DNA 1: CCGGCCGG
DNA 2: CCGGCCGG
modifications: Rp phosphorothioate between G3 and G4, both strands
As for B3, the binding result in the data set with ScoMcrA-SBD [12] is on record as “binds”.

B4: SBD-SRA domains of ScoMcrA (residues 91-442) (domain or fragment, Streptomyces coelicolor, UniProt Q9L0M9 91-442, looked up)
chain: T3 sequence
notes: ScoMcrA (ScoA3McrA), Streptomyces coelicolor, SBD-SRA domains, residues 91-442; Crystallised in complex with a 10 bp Rp PT-DNA; the dimer is formed by a crystallographic two-fold axis; also called ScoMcrA-SBD-SRA; source: E. coli BL21(DE3), purified (HisTrap, TEV cleavage, heparin, Source 15Q, Superdex 200)
As for B4, in data set [13], the “stoichiometry N” value came to 2.

B5: GGCC10 Rp (dsDNA)
DNA 1: CCCGGCCGGG
DNA 2: CCCGGCCGGG
modifications: Rp phosphorothioate between G4 and G5, both strands
As for B5, the binding result with ScoMcrA-SBD-SRA is listed as “binds”.
